Results reported in PMC10132440.

What was measured:
[1] = molecular target: PN45545 TCR-CD3, strep-tagged, detergent-solubilized (SPR reagent) (humanized VelociT mouse | not stated) (UniProt P07766); test: SPR; details: peptide-MHC
[2] = molecular target: PN45428 TCR-CD3, strep-tagged, detergent-solubilized (SPR reagent) (humanized VelociT mouse | not stated) (UniProt P07766); test: SPR; details: peptide-MHC

Row | Substance | Kd [1] | Kd [2]
1 | single-chain disulfide-stabilized MAGEA4 (230-239) pMHC (from UniProt P61769 21-119) | 6.1 µM | 
2 | single-chain disulfide-stabilized MAGEA8 (232-241) pMHC (from UniProt P61769 21-119) | 420 µM | 260 µM
